The values that follow come from publication doi:10.1101/2022.09.16.508217 (bioRxiv, 2022).

Assay [1] addresses chicken N-terminally His-tagged PCNA (recombinant) (chicken, UniProt Q9DEA3 1-262). As to the kind of experiment: pull-down.
In assay [2] the target is T1, yeast PCNA, N-terminally His-tagged Pol30 (S. cerevisiae, UniProt P15873 1-258).
T1 sequence: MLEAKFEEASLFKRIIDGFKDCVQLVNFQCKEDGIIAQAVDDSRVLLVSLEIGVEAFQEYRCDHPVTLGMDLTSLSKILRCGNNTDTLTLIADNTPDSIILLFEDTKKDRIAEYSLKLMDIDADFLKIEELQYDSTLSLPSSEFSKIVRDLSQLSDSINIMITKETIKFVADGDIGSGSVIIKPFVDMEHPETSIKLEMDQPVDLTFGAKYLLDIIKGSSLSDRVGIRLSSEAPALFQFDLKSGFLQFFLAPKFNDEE
As to the kind of experiment: pull-down.

Sequence of chicken N-terminally His-tagged PCNA (recombinant) (Q9DEA3 whole entry): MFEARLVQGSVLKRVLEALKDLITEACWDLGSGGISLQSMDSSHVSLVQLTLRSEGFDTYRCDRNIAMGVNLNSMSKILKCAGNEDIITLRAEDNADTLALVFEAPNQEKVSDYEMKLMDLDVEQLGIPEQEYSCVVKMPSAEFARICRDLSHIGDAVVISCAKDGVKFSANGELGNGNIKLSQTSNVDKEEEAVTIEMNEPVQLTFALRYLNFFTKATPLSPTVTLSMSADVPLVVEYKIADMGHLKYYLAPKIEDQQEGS

For the molecule TNKVVQTLRSLYAAKDGTSS [GST-NIPBL-PIP2 (chicken NIPBL aa 2764-2783 fused to GST)], the binding result in assay [1] was “binds”.

B1: GST-NIPBL WT (C-terminus of chicken NIPBL, aa 2582-2783, fused to GST) (domain or fragment)
chain: ANSKITEEVKRSIVKQYLDFKLLMEHLDPDEEEEDGEVSASTNARNKAITSLLGGGSPKNNAAETEDDESDGEDRGGGTSGSLRRSKRNSDSTELASQMNESVDVMDVIAICCPKYKDRPQIARVVQKTSNGFSVQWMAGSYSGSWTEAKRRDGRKLVPWVDTIKESDIIYKKIALTSANKLTNKVVQTLRSLYAAKDGTSS
For the molecule B1, the binding result in assay [1] is recorded as “binds”.

B2: GST-NIPBL pip1 (chicken NIPBL aa 2582-2783 with PIP1 mutated Q2597A,L2599A,F2601A, fused to GST) (domain or fragment)
chain: ANSKITEEVKRSIVKAYADAKLLMEHLDPDEEEEDGEVSASTNARNKAITSLLGGGSPKNNAAETEDDESDGEDRGGGTSGSLRRSKRNSDSTELASQMNESVDVMDVIAICCPKYKDRPQIARVVQKTSNGFSVQWMAGSYSGSWTEAKRRDGRKLVPWVDTIKESDIIYKKIALTSANKLTNKVVQTLRSLYAAKDGTSS
With B2, the binding result in assay [1] is reported as “binds”.
The same measure, in the same setting: then TNKVVATARSLAAAKDGTSS [GST-NIPBL-pip2 (chicken NIPBL aa 2764-2783 with Q2769A,L2771A,Y2775A, fused to GST)], with “binds”.
Turning to YSSNGKLLTYFRKHVKDT (domain or fragment) [GSTscc2PIP (GST fused with the last 18 amino acids of yeast Scc2, aa 1476-1493, wild-type PIP)], the binding result in assay [2] is listed as “binds”.
